In patent US10941182 (Amgen, dated 2021):
Starred links: 1 amine or outer side, 2 acyl side, 3 side chain; linkers in the order of their positions; H or OH if unused. Non-standard residues stand in square brackets, D forms with d. *: point of attachment. AC4Abu = α-carboxy-4-aminobutyric acid, O=C(C(CCN[*:1])C(=O)[*:3])[*:2]; Oic = O=C(O)[C@@H]1C[C@@H]2CCCC[C@@H]2N1; Phe(4-Cl) = N[C@@H](Cc1ccc(Cl)cc1)C(=O)O; γGlu = O=C(O)[C@H](CCC(=O)[*:2])N[*:1]; 1Nal = N[C@@H](Cc1cccc2ccccc12)C(=O)O; NMeR = CN[C@@H](CCCNC(=N)N)C(=O)O; Tridecanoyl = CCCCCCCCCCCCC(=O)*; Cha = N[C@@H](CC1CCCCC1)C(=O)O; Gly(N-CH2CH2OH) = O=C(O)CNCCO; Tle = CC(C)(C)[C@H](N)C(=O)O; Nle = CCCC[C@H](N)C(=O)O; AEEA = NCCOCCOCC(=O)O; Aib = CC(C)(N)C(=O)O; βAla = NCCC(=O)O

B1: Apelin polypeptide SEQ ID NO: 439 (peptide)
peptide: Tridecanoyl-[γGlu][AEEA][AEEA]QRP[NMeR][Tle]SHKG[Oic][Nle]P[Phe(4-Cl)]-OH
SMILES: CCCCCCCCCCCCC(=O)N[C@@H](CCC(=O)NCCOCCOCC(=O)NCCOCCOCC(=O)N[C@@H](CCC(N)=O)C(=O)N[C@@H](CCCNC(=N)N)C(=O)N1CCC[C@H]1C(=O)N(C)[C@@H](CCCNC(=N)N)C(=O)N[C@H](C(=O)N[C@@H](CO)C(=O)N[C@@H](Cc1c[nH]cn1)C(=O)N[C@@H](CCCCN)C(=O)NCC(=O)N1[C@H](C(=O)N[C@@H](CCCC)C(=O)N2CCC[C@H]2C(=O)N[C@@H](Cc2ccc(Cl)cc2)C(=O)O)C[C@@H]2CCCC[C@@H]21)C(C)(C)C)C(=O)O
B2: Apelin polypeptide SEQ ID NO: 448 (peptide)
peptide: Tridecanoyl-[γGlu][AEEA][AEEA]QRP[NMeR]LSHHGP[Nle]P[Phe(4-Cl)]-OH
SMILES: CCCCCCCCCCCCC(=O)N[C@@H](CCC(=O)NCCOCCOCC(=O)NCCOCCOCC(=O)N[C@@H](CCC(N)=O)C(=O)N[C@@H](CCCNC(=N)N)C(=O)N1CCC[C@H]1C(=O)N(C)[C@@H](CCCNC(=N)N)C(=O)N[C@@H](CC(C)C)C(=O)N[C@@H](CO)C(=O)N[C@@H](Cc1c[nH]cn1)C(=O)N[C@@H](Cc1c[nH]cn1)C(=O)NCC(=O)N1CCC[C@H]1C(=O)N[C@@H](CCCC)C(=O)N1CCC[C@H]1C(=O)N[C@@H](Cc1ccc(Cl)cc1)C(=O)O)C(=O)O
B3: Apelin polypeptide SEQ ID NO: 424 (peptide)
peptide: Tridecanoyl-[γGlu][AEEA][AEEA]QRP[NMeR]LSH[βAla]GP[Nle]P[Phe(4-Cl)]-OH
SMILES: CCCCCCCCCCCCC(=O)N[C@@H](CCC(=O)NCCOCCOCC(=O)NCCOCCOCC(=O)N[C@@H](CCC(N)=O)C(=O)N[C@@H](CCCNC(=N)N)C(=O)N1CCC[C@H]1C(=O)N(C)[C@@H](CCCNC(=N)N)C(=O)N[C@@H](CC(C)C)C(=O)N[C@@H](CO)C(=O)N[C@@H](Cc1c[nH]cn1)C(=O)NCCC(=O)NCC(=O)N1CCC[C@H]1C(=O)N[C@@H](CCCC)C(=O)N1CCC[C@H]1C(=O)N[C@@H](Cc1ccc(Cl)cc1)C(=O)O)C(=O)O
B4: Apelin polypeptide SEQ ID NO: 423 (peptide)
peptide: Tridecanoyl-[AC4Abu][AEEA][AEEA]QRP[NMeR]LS[βAla]KGP[Nle]P[Phe(4-Cl)]-OH
SMILES: CCCCCCCCCCCCC(=O)NCCC(C(=O)O)C(=O)NCCOCCOCC(=O)NCCOCCOCC(=O)N[C@@H](CCC(N)=O)C(=O)N[C@@H](CCCNC(=N)N)C(=O)N1CCC[C@H]1C(=O)N(C)[C@@H](CCCNC(=N)N)C(=O)N[C@@H](CC(C)C)C(=O)N[C@@H](CO)C(=O)NCCC(=O)N[C@@H](CCCCN)C(=O)NCC(=O)N1CCC[C@H]1C(=O)N[C@@H](CCCC)C(=O)N1CCC[C@H]1C(=O)N[C@@H](Cc1ccc(Cl)cc1)C(=O)O
B5: Apelin polypeptide SEQ ID NO: 436 (peptide)
peptide: Tridecanoyl-[γGlu][AEEA][AEEA]QRP[NMeR][Cha]SYKG[Oic][Nle]P[Phe(4-Cl)]-OH
SMILES: CCCCCCCCCCCCC(=O)N[C@@H](CCC(=O)NCCOCCOCC(=O)NCCOCCOCC(=O)N[C@@H](CCC(N)=O)C(=O)N[C@@H](CCCNC(=N)N)C(=O)N1CCC[C@H]1C(=O)N(C)[C@@H](CCCNC(=N)N)C(=O)N[C@@H](CC1CCCCC1)C(=O)N[C@@H](CO)C(=O)N[C@@H](Cc1ccc(O)cc1)C(=O)N[C@@H](CCCCN)C(=O)NCC(=O)N1[C@H](C(=O)N[C@@H](CCCC)C(=O)N2CCC[C@H]2C(=O)N[C@@H](Cc2ccc(Cl)cc2)C(=O)O)C[C@@H]2CCCC[C@@H]21)C(=O)O
B6: Apelin polypeptide SEQ ID NO: 467 (peptide)
peptide: Tridecanoyl-[γGlu][AEEA][AEEA]QRP[NMeR]L[Gly(N-CH2CH2OH)]HKGP[Nle]P[Phe(4-Cl)]-OH
SMILES: CCCCCCCCCCCCC(=O)N[C@@H](CCC(=O)NCCOCCOCC(=O)NCCOCCOCC(=O)N[C@@H](CCC(N)=O)C(=O)N[C@@H](CCCNC(=N)N)C(=O)N1CCC[C@H]1C(=O)N(C)[C@@H](CCCNC(=N)N)C(=O)N[C@@H](CC(C)C)C(=O)N(CCO)CC(=O)N[C@@H](Cc1c[nH]cn1)C(=O)N[C@@H](CCCCN)C(=O)NCC(=O)N1CCC[C@H]1C(=O)N[C@@H](CCCC)C(=O)N1CCC[C@H]1C(=O)N[C@@H](Cc1ccc(Cl)cc1)C(=O)O)C(=O)O
B7: Apelin polypeptide SEQ ID NO: 449 (peptide)
peptide: Tridecanoyl-[γGlu][AEEA][AEEA]QRP[NMeR]LSH[1Nal]GP[Nle]P[Phe(4-Cl)]-OH
SMILES: CCCCCCCCCCCCC(=O)N[C@@H](CCC(=O)NCCOCCOCC(=O)NCCOCCOCC(=O)N[C@@H](CCC(N)=O)C(=O)N[C@@H](CCCNC(=N)N)C(=O)N1CCC[C@H]1C(=O)N(C)[C@@H](CCCNC(=N)N)C(=O)N[C@@H](CC(C)C)C(=O)N[C@@H](CO)C(=O)N[C@@H](Cc1c[nH]cn1)C(=O)N[C@@H](Cc1cccc2ccccc12)C(=O)NCC(=O)N1CCC[C@H]1C(=O)N[C@@H](CCCC)C(=O)N1CCC[C@H]1C(=O)N[C@@H](Cc1ccc(Cl)cc1)C(=O)O)C(=O)O
B8: Apelin polypeptide SEQ ID NO: 464 (peptide)
peptide: Tridecanoyl-[γGlu][AEEA][AEEA]QRP[NMeR]L[βAla]HKGP[Nle]P[Phe(4-Cl)]-OH
SMILES: CCCCCCCCCCCCC(=O)N[C@@H](CCC(=O)NCCOCCOCC(=O)NCCOCCOCC(=O)N[C@@H](CCC(N)=O)C(=O)N[C@@H](CCCNC(=N)N)C(=O)N1CCC[C@H]1C(=O)N(C)[C@@H](CCCNC(=N)N)C(=O)N[C@@H](CC(C)C)C(=O)NCCC(=O)N[C@@H](Cc1c[nH]cn1)C(=O)N[C@@H](CCCCN)C(=O)NCC(=O)N1CCC[C@H]1C(=O)N[C@@H](CCCC)C(=O)N1CCC[C@H]1C(=O)N[C@@H](Cc1ccc(Cl)cc1)C(=O)O)C(=O)O
B9: Apelin polypeptide SEQ ID NO: 352 (peptide)
peptide: Tridecanoyl-[γGlu][AEEA][AEEA]QRP[NMeR]LSHKG[Oic][Nle]P[Phe(4-Cl)]-OH
SMILES: CCCCCCCCCCCCC(=O)N[C@@H](CCC(=O)NCCOCCOCC(=O)NCCOCCOCC(=O)N[C@@H](CCC(N)=O)C(=O)N[C@@H](CCCNC(=N)N)C(=O)N1CCC[C@H]1C(=O)N(C)[C@@H](CCCNC(=N)N)C(=O)N[C@@H](CC(C)C)C(=O)N[C@@H](CO)C(=O)N[C@@H](Cc1c[nH]cn1)C(=O)N[C@@H](CCCCN)C(=O)NCC(=O)N1[C@H](C(=O)N[C@@H](CCCC)C(=O)N2CCC[C@H]2C(=O)N[C@@H](Cc2ccc(Cl)cc2)C(=O)O)C[C@@H]2CCCC[C@@H]21)C(=O)O
B10: Apelin polypeptide SEQ ID NO: 531 (peptide)
peptide: Tridecanoyl-[γGlu][AEEA][AEEA][dQ]RP[NMeR][Cha]SYKG[Oic][Nle][Aib][Phe(4-Cl)]-OH
SMILES: CCCCCCCCCCCCC(=O)N[C@@H](CCC(=O)NCCOCCOCC(=O)NCCOCCOCC(=O)N[C@H](CCC(N)=O)C(=O)N[C@@H](CCCNC(=N)N)C(=O)N1CCC[C@H]1C(=O)N(C)[C@@H](CCCNC(=N)N)C(=O)N[C@@H](CC1CCCCC1)C(=O)N[C@@H](CO)C(=O)N[C@@H](Cc1ccc(O)cc1)C(=O)N[C@@H](CCCCN)C(=O)NCC(=O)N1[C@H](C(=O)N[C@@H](CCCC)C(=O)NC(C)(C)C(=O)N[C@@H](Cc2ccc(Cl)cc2)C(=O)O)C[C@@H]2CCCC[C@@H]21)C(=O)O
B11: Apelin polypeptide SEQ ID NO: 437 (peptide)
peptide: Tridecanoyl-[γGlu][AEEA][AEEA]QRP[NMeR][Cha]SVKG[Oic][Nle]P[Phe(4-Cl)]-OH
SMILES: CCCCCCCCCCCCC(=O)N[C@@H](CCC(=O)NCCOCCOCC(=O)NCCOCCOCC(=O)N[C@@H](CCC(N)=O)C(=O)N[C@@H](CCCNC(=N)N)C(=O)N1CCC[C@H]1C(=O)N(C)[C@@H](CCCNC(=N)N)C(=O)N[C@@H](CC1CCCCC1)C(=O)N[C@@H](CO)C(=O)N[C@H](C(=O)N[C@@H](CCCCN)C(=O)NCC(=O)N1[C@H](C(=O)N[C@@H](CCCC)C(=O)N2CCC[C@H]2C(=O)N[C@@H](Cc2ccc(Cl)cc2)C(=O)O)C[C@@H]2CCCC[C@@H]21)C(C)C)C(=O)O

target: T1, human APJ receptor (human, UniProt P35414 1-380); experiment: cell-based or functional assay
T1 sequence (looked up): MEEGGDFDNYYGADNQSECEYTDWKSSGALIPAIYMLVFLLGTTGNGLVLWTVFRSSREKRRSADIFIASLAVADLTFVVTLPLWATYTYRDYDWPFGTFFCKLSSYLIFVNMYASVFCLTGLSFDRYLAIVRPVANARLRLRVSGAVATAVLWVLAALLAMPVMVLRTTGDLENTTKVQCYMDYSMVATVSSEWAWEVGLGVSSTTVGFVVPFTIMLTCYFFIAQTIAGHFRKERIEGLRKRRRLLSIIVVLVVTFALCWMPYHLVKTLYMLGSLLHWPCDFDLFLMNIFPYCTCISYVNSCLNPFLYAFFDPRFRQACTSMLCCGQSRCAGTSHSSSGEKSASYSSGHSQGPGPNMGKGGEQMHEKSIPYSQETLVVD

Binder	EC50 Human APJ Receptor (GTPγS assay)
B1	2.15 nM
B2	0.133 nM
B3	4.15 nM
B4	0.645 nM
B5	0.793 nM
B6	0.129 nM
B7	0.394 nM
XXXQRPRLXHKGPXPF ({TDA}[AC4Abu][Aeea][Aeea]QRP[NMeArg]L[Pra]HKGP[Nle]P[4-Cl-F]{COOH}) [Apelin polypeptide SEQ ID NO: 450]	0.132 nM
B8	0.0542 nM
B9	0.108 nM
B10	0.852 nM
B11	0.663 nM

target: T2, rat APJ receptor (rat, UniProt Q9JHG3 1-377); experiment: cell-based or functional assay
T2 sequence (looked up): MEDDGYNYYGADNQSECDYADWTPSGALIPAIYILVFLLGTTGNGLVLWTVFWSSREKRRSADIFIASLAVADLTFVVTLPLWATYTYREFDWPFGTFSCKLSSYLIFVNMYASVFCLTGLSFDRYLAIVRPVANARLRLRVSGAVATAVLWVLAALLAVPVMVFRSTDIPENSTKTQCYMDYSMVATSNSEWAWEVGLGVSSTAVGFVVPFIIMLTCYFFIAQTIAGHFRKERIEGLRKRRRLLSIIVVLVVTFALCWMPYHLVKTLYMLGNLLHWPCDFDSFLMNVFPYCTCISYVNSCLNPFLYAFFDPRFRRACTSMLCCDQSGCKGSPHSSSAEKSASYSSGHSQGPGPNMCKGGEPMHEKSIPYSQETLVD

Binder	EC50 Rat APJ Receptor (GTPγS assay)
B1	3.21 nM
B2	0.305 nM
B3	17.2 nM
B4	1.18 nM
B5	1.47 nM
B6	0.521 nM
B7	0.47 nM
XXXQRPRLXHKGPXPF ({TDA}[AC4Abu][Aeea][Aeea]QRP[NMeArg]L[Pra]HKGP[Nle]P[4-Cl-F]{COOH}) [Apelin polypeptide SEQ ID NO: 450]	0.313 nM
B8	0.377 nM
B9	0.23 nM
B10	5.66 nM
B11	0.725 nM
